Measured values reported in the supplement of paper PMC11246515.
± gives the standard deviation of the averaged measurements.

Test: total protein half-life in vivo (active degradation + dilution); higher = more stable protein
[1] = E. coli NCM3722 delta-clpP delta-lon delta-hslV, growth: N-lim chemostat, doubling time 6 h
[2] = E. coli NCM3722 delta-clpP, growth: N-lim chemostat, doubling time 6 h
[3] = E. coli NCM3722 delta-lon, growth: N-lim chemostat, doubling time 6 h
[4] = E. coli NCM3722 delta-smpB, growth: N-lim chemostat, doubling time 6 h
[5] = wild type E. coli NCM3722, growth: C-lim chemostat, doubling time 3 h
[6] = wild type E. coli NCM3722, growth: C-lim chemostat, doubling time 6 h
[7] = wild type E. coli NCM3722, growth: C-lim chemostat, doubling time 12 h
[8] = wild type E. coli NCM3722, growth: N-lim chemostat, doubling time 6 h
[9] = wild type E. coli NCM3722, growth: N-lim chemostat, doubling time 12 h
[10] = wild type E. coli NCM3722, growth: P-lim chemostat, doubling time 6 h
[11] = wild type E. coli NCM3722, growth: P-lim chemostat, doubling time 12 h
[12] = E. coli NCM3722 delta-hslV, growth: N-lim chemostat, doubling time 6 h

MSSTNIEQVMPVKLAQALANPLFPALDSALRSGRHIGLDELDNHAFLMDFQEYLEEFYARYNVELIRAPEGFFYLRPRSTTLIPRSVLSELDMMVGKILCYLYLSPERLANEGIFTQQELYDELLTLADEAKLLKLVNNRSTGSDVDRQKLQEKVRSSLNRLRRLGMVWFMGHDSSKFRITESVFRFGADVRAGDDPREAQRRLIRDGEAMPIENHLQLNDETEENQPDSGEEE
total protein half-life in vivo [1]: 6.36 ± 0.27 h
total protein half-life in vivo [2]: 6.18 ± 0.4 h
total protein half-life in vivo [3]: 6.21 ± 0.7 h
total protein half-life in vivo [4]: 5.67 ± 0.27 h
total protein half-life in vivo [5]: 2.98 ± 0.069 h
total protein half-life in vivo [6]: 5.85 ± 0.17 h
total protein half-life in vivo [7]: 11.1 ± 0.5 h
total protein half-life in vivo [8]: 5.85 ± 0.31 h
total protein half-life in vivo [9]: 9.43 ± 0.28 h
total protein half-life in vivo [10]: 5.716 ± 0.029 h
total protein half-life in vivo [11]: 10.7 ± 0.54 h

MKPIFSRGPSLQIRLILAVLVALGIIIADSRLGTFSQIRTYMDTAVSPFYFVSNAPRELLDGVSQTLASRDQLELENRALRQELLLKNSELLMLGQYKQENARLRELLGSPLRQDEQKMVTQVISTVNDPYSDQVVIDKGSVNGVYEGQPVISDKGVVGQVVAVAKLTSRVLLICDATHALPIQVLRNDIRVIAAGNGCTDDLQLEHLPANTDIRVGDVLVTSGLGGRFPEGYPVAVVSSVKLDTQRAYTVIQARPTAGLQRLRYLLLLWGADRNGANPMTPEEVHRVANERLMQMMPQVLPSPDAMGPKLPEPATGIAQPTPQQPATGNAATAPAAPTQPAANRSPQRATPPQSGAQPPARAPGGQ
total protein half-life in vivo [1]: 5.092 ± 0.007 h
total protein half-life in vivo [2]: 4.62 ± 0.051 h
total protein half-life in vivo [12]: 4.54 ± 0.24 h
total protein half-life in vivo [4]: 4.76 ± 0.74 h
total protein half-life in vivo [5]: 2.85 ± 0.07 h
total protein half-life in vivo [6]: 5.57 ± 1.1 h
total protein half-life in vivo [7]: 10.25 ± 0.089 h
total protein half-life in vivo [8]: 4.21 ± 0.1 h
total protein half-life in vivo [9]: 8.66 ± 0.23 h
total protein half-life in vivo [10]: 4.98 ± 0.25 h
total protein half-life in vivo [11]: 10.5 ± 0.18 h

MAFTPFPPRQPTASARLPLTLMTLDDWALATITGADSEKYMQGQVTADVSQMAEDQHLLAAHCDAKGKMWSNLRLFRDGDGFAWIERRSVREPQLTELKKYAVFSKVTIAPDDERVLLGVAGFQARAALANLFSELPSKEKQVVKEGATTLLWFEHPAERFLIVTDEATANMLTDKLRGEAELNNSQQWLALNIEAGFPVIDAANSGQFIPQATNLQALGGISFKKGCYTGQEMVARAKFRGANKRALWLLAGSASRLPEAGEDLELKMGENWRRTGTVLAAVKLEDGQVVVQVVMNNDMEPDSIFRVRDDANTLHIEPLPYSLEE [P0ADE8]
total protein half-life in vivo [1]: 5.041 ± 0.022 h
total protein half-life in vivo [2]: 4.7 ± 0.35 h
total protein half-life in vivo [12]: 5.202 ± 0.032 h
total protein half-life in vivo [3]: 5.31 ± 0.23 h
total protein half-life in vivo [4]: 4.327 ± 0.0059 h
total protein half-life in vivo [5]: 2.8172 ± 0.0011 h
total protein half-life in vivo [6]: 5.45 ± 0.19 h
total protein half-life in vivo [7]: 9.03 ± 1.1 h
total protein half-life in vivo [8]: 5.25 ± 0.67 h
total protein half-life in vivo [9]: 7.936 ± 0.018 h
total protein half-life in vivo [10]: 5.54 ± 0.069 h
total protein half-life in vivo [11]: 11.3 ± 1.9 h

MFPPMWRRLIYHPDINYALRQTLVLCLPVAVGLMLGELRFGLLFSLVPACCNIAGLDTPHKRFFKRLIIGASLFATCSLLTQLLLAKDVPLPFLLTGLTLVLGVTAELGPLHAKLLPASLLAAIFTLSLAGYMPVWEPLLIYALGTLWYGLFNWFWFWIWREQPLRESLSLLYRELADYCEAKYSLLTQHTDPEKALPPLLVRQQKAVDLITQCYQQMHMLSAQNNTDYKRMLRIFQEALDLQEHISVSLHQPEEVQKLVERSHAEEVIRWNAQTVAARLRVLADDILYHRLPTRFTMEKQIGALEKIARQHPDNPVGQFCYWHFSRIARVLRTQKPLYARDLLADKQRRMPLLPALKSYLSLKSPALRNAGRLSVMLSVASLMGTALHLPKSYWILMTVLLVTQNGYGATRLRIVNRSVGTVVGLIIAGVALHFKIPEGYTLTLMLITTLASYLILRKNYGWATVGFTITAVYTLQLLWLNGEQYILPRLIDTIIGCLIAFGGTVWLWPQWQSGLLRKNAHDALEAYQEAIRLILSEDPQPTPLAWQRMRVNQAHNTLYNSLNQAMQEPAFNSHYLADMKLWVTHSQFIVEHINAMTTLAREHRALPPELAQEYLQSCEIAIQRCQQRLEYDEPGSSGDANIMDAPEMQPHEGAAGTLEQHLQRVIGHLNTMHTISSMAWRQRPHHGIWLSRKLRDSKA
total protein half-life in vivo [1]: 6.2 ± 0.17 h
total protein half-life in vivo [2]: 6.9 h
total protein half-life in vivo [12]: 4.97 ± 0.47 h
total protein half-life in vivo [3]: 5.47 ± 0.38 h
total protein half-life in vivo [4]: 5.02 ± 0.33 h
total protein half-life in vivo [5]: > 4 h
total protein half-life in vivo [6]: 5.87 h
total protein half-life in vivo [7]: 13.4 ± 0.3 h
total protein half-life in vivo [8]: 6.05 ± 0.55 h
total protein half-life in vivo [10]: 6.24 ± 0.091 h
total protein half-life in vivo [11]: 12.2 ± 0.44 h

MFLIITRDTMFFTAMKNILSKGNVVHIQNEEEIDVMLHQNAFVIIDTLMNNVFHSNFLTQIERLKPVHVIIFSPFNIKRCLGKVPVTFVPRTITIIDFVALINGSYCSVPEAAVSLSRKQHQVLSCIANQMTTEDILEKLKISLKTFYCHKHNIMMILNLKRINELVRHQHIDYLV
total protein half-life in vivo [1]: 3.86 ± 0.062 h
total protein half-life in vivo [2]: 3.81 h
total protein half-life in vivo [12]: 3.24 ± 0.28 h
total protein half-life in vivo [3]: 3.74 ± 0.092 h
total protein half-life in vivo [4]: 3.036 ± 0.0077 h
total protein half-life in vivo [8]: 2.94 ± 0.13 h
total protein half-life in vivo [9]: 8.12 h
total protein half-life in vivo [11]: 4.78 h

MAATKPAFNPPGKKGDIIFSVLVKLAALIVLLMLGGIIVSLIISSWPSIQKFGLAFLWTKEWDAPNDIYGALVPIYGTLVTSFIALLIAVPVSFGIALFLTELAPGWLKRPLGIAIELLAAIPSIVYGMWGLFIFAPLFAVYFQEPVGNIMSNIPIVGALFSGPAFGIGILAAGVILAIMIIPYIAAVMRDVFEQTPVMMKESAYGIGCTTWEVIWRIVLPFTKNGVIGGIMLGLGRALGETMAVTFIIGNTYQLDSASLYMPGNSITSALANEFAEAESGLHVAALMELGLILFVITFIVLAASKFMIMRLAKNEGAR [P0AGH8]
total protein half-life in vivo [1]: 5.52 ± 1 h
total protein half-life in vivo [12]: 5.62 ± 0.46 h
total protein half-life in vivo [3]: 5.31 ± 1.4 h
total protein half-life in vivo [4]: 5.08 ± 0.47 h
total protein half-life in vivo [7]: 15.4 h
total protein half-life in vivo [8]: 3.42 h
total protein half-life in vivo [9]: 12.1 h
total protein half-life in vivo [10]: 5.49 ± 0.25 h
total protein half-life in vivo [11]: 11.4 ± 0.52 h

MKKTRTANLHHLYHEPLPENLKLTPKVEVDNVHQRQTTDVYEHALTITAWQQIYDQLHPGKFHGEFTEILLDDIQVFREYTGLALRQSCLVWPNSFWFGIPATRGEQGFIGSQCLGSAEIATRPGGTEFELSTPDDYTILGVVLSEDVITRQANFLHNPDRVLHMLRNQSALEVKEQHKAALWGFVQQALATFCENPENLHQPAVRKVLGDNLLMAMGAMLEEAQPMVTAESISHQSYRRLLSRAREYVLENMSEPVTVLDLCNQLHVSRRTLQNAFHAILGIGPNAWLKRIRLNAVRRELISPWSQSMTVKDAAMQWGFWHLGQFATDYQQLFSEKPSLTLHQRMREWG
total protein half-life in vivo [1]: 5.53 ± 0.77 h
total protein half-life in vivo [6]: 1.42 h
total protein half-life in vivo [9]: 2.75 h
total protein half-life in vivo [10]: 1.29 h
